From patent publication US10704030B2, “P450-BM3 variants with improved activity” (Codexis, Inc., priority 2015, dated 2020)
Where a chain is given by its changes, count along the chain named. Names may count otherwise.

B1: Variant 16: P450-BM3 variant of SEQ ID NO: 6: K32R; C48S; Y52F; G115R; L216Y; D232H; E349K; M491A; T577A; E619D; A627S; D722S (protein)
chain: MTIKEMPQPKTFGELKNLPLLNTDKPVQALMRIADELGEIFKFEAPGSVTRFLSSQRLIKEACDESRFDKNLSQALKFARDFLGDGLFTSWTHEINWKKAHNILLPSFSQQAMKRYHAMMVDIAVQLVQKWERLNADEHIEVSEDMTRLTLDTIGLCGFNYRFNSFYRDQPHPFIISMVRALDEVMNKLQRANPDDPAYDENKRQCQEDIKVMNDYVDKIIADRKARGEQSHDLLTQMLNGKDPETGEPLDDGNISYQIITFLIAGHETTSGLLSFALYFLVKNPHVLQKVAEEAARVLVDPVPSYKQVKQLKYVGMVLNEALRLWPTAPAFSLYAKEDTVLGGEYPLKKGDEVMVLIPQLHRDKTIWGDDVEEFRPERFENPSAIPQHAFKPFGNGQRACIGQQFALHEATLVLGMMLKHFDFEDHTNYELDIKETLTLKPEGFVVKAKSKKIPLGGIPSPSTEQSAKKVRKKAENAHNTPLLVLYGSNAGTAEGTARDLADIAMSKGFAPQVATLDSHAGNLPREGAVLIVTASYNGHPPDNAKQFVDWLDQASADEVKGVRYSVFGCGDKNWAATYQKVPAFIDETLAAKGAENIADRGEADASDDFEGTYEEWRDHMWSDVASYFNLDIENSEDNKSTLSLQFVDSAADMPLAKMHGAFSTNVVASKELQQPGSARSTRHLEIELPKEASYQEGDHLGVIPRNYEGIVNRVTARFGLSASQQIRLEAEEEKLAHLPLAKTVSVEELLQYVELQDPVTRTQLRAMAAKTVCPPHKVELEALLEKQAYKEQVLAKRLTMLELLEKYPACEMKFSEFIALLPSIRPRYYSISSSPRVDEKQASITVSVVSGEAWSGYGEYKGIASNYLAELQEGDTITCFISTPQSEFTLPKDPETPLIMVGPGTGVAPFRGFVQARKQLKEQGQSLGEAHLYFGCRSPHEDYLYQEELENAQSEGIITLHTAFSRMPNQPKTYVQHVMEQDGKKLIELLDQGAHFYICGDGSQMAPAVEATLMKSYADVHQVSEADARLWLQQLEEKGRYAKDVWAG
modifications: P450_BM3
notes: C48S; Y52F; G115R; L216Y; D232H; E349K; M491A; T577A; E619D; A627S; D722S
B2: Variant 14: P450-BM3 variant of SEQ ID NO: 4: C48S; I95P; G115R; L216Y; D232H; M491A; N574T; D722S (protein)
chain: B1 chain with R32K, F52Y, L83A, F88V, I95P, K349E, N574T, A577T, D619E, S627A
modifications: P450_BM3
notes: I95P; G115R; L216Y; D232H; M491A; N574T; D722S
B3: Variant 15: P450-BM3 variant of SEQ ID NO: 4: K32R; C48S; I95P; L216Y; D232H; E349T; M491A; N574T; T577A; E619D; D722S (protein)
chain: B1 chain with F52Y, L83A, F88V, I95P, R115G, K349T, N574T, S627A
modifications: P450_BM3
notes: C48S; I95P; L216Y; D232H; E349T; M491A; N574T; T577A; E619D; D722S
B4: Variant 17: P450-BM3 variant of SEQ ID NO: 6: K32R; C48S; Y52F; I95P; Q111R; G115R; I176V; L216Y; D232H; E349T; M491A; T577A; E619D; D722S (protein)
chain: B1 chain with I95P, Q111R, I176V, K349T, S627A
modifications: P450_BM3
notes: C48S; Y52F; I95P; Q111R; G115R; I176V; L216Y; D232H; E349T; M491A; T577A; E619D; D722S

Assay: Validation of generalist properties: oxidation of imatinib by lyophilized P450-BM3 variant, UPLC-MS
Type: biochemical
Conditions: [Imatinib] = 1 mM
In short: (§1)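 Lyophilized lysate of E. coli-expressed P450-BM3 variant (stock standardized to 12 μM heme) was incubated 24 h at 30 °C with 1 or 2 mM substrate, 1.0 mM NADP+, 25 mM glucose, 0.5 mg/mL glucose dehydrogenase and 5% DMSO in 100 mM potassium phosphate. Acetonitrile-quenched samples were analyzed by UPLC-MS (positive ESI).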

Molecule | % Conv.
B1 | ++++ (15.01-20.00)
B2 | +++ (10.01-15.00)
B3 | ++++ (15.01-20.00)
B4 | ++++ (15.01-20.00)

Same assay, conditions: [Imatinib] = 1 mM; TON = [substrate]*% conversion/[P450]

Molecule | TON
B1 | ‡‡‡‡ (10000-50000)
B2 | ‡‡‡ (5001-10000)
B3 | ‡‡‡ (5001-10000)
B4 | ‡‡‡‡ (10000-50000)

Same assay, conditions: [Imatinib] = 1 mM; fold improvement over parent MCYP-1.2-A07

Molecule | FIOPC (A07)
B2 | * (0.0-3.0)
B3 | ** (3.01-5.0)

Same assay, conditions: [Imatinib] = 1 mM; fold improvement over parent MCYP-1.2-A12

Molecule | FIOPC (A12)
B1 | **** (10.01-15.00)
B4 | **** (10.01-15.00)

Assay: Validation of generalist properties: oxidation of gefitinib by lyophilized P450-BM3 variant, UPLC-MS
Type: biochemical
Conditions: [Gefitinib] = 1 mM
In short: as §1

Molecule | % Conv.
B1 | ++++ (15.01-20.00)
B2 | ++++ (15.01-20.00)
B3 | ++++ (15.01-20.00)
B4 | ++++ (15.01-20.00)

Same assay, conditions: [Gefitinib] = 1 mM; TON = [substrate]*% conversion/[P450]

Molecule | TON
B1 | ‡‡‡‡ (10000-50000)
B2 | ‡‡‡‡ (10000-50000)
B3 | ‡‡‡‡ (10000-50000)
B4 | ‡‡‡‡ (10000-50000)

Same assay, conditions: [Gefitinib] = 1 mM; fold improvement over parent MCYP-1.2-A07

Molecule | FIOPC (A07)
B2 | **** (10.01-15.00)
B3 | **** (10.01-15.00)

Same assay, conditions: [Gefitinib] = 1 mM; fold improvement over parent MCYP-1.2-A12

Molecule | FIOPC (A12)
B1 | **** (10.01-15.00)
B4 | *** (5.01-10.0)

Assay: Validation of generalist properties: oxidation of diclofenac by lyophilized P450-BM3 variant, UPLC-MS
Type: biochemical
Conditions: [Diclofenac] = 1 mM
In short: as §1

Molecule | % Conv.
B1 | ++++ (15.01-20.00)
B2 | ++++ (15.01-20.00)
B3 | ++++ (15.01-20.00)
B4 | ++++ (15.01-20.00)

Same assay, conditions: [Diclofenac] = 1 mM; TON = [substrate]*% conversion/[P450]

Molecule | TON
B1 | ‡‡‡‡ (10000-50000)
B2 | ‡‡‡‡ (10000-50000)
B3 | ‡‡‡‡ (10000-50000)
B4 | ‡‡‡‡ (10000-50000)

Same assay, conditions: [Diclofenac] = 1 mM; fold improvement over parent MCYP-1.2-A07

Molecule | FIOPC (A07)
B2 | ** (3.01-5.0)
B3 | * (0.0-3.0)

Same assay, conditions: [Diclofenac] = 1 mM; fold improvement over parent MCYP-1.2-A12

Molecule | FIOPC (A12)
B1 | * (0.0-3.0)
B4 | * (0.0-3.0)

Assay: Validation of generalist properties: oxidation of loratadine by lyophilized P450-BM3 variant, UPLC-MS
Type: biochemical
Conditions: [Loratadine] = 1 mM
In short: as §1

Molecule | % Conv.
B1 | + (0-5.00)
B2 | +++ (10.01-15.00)
B3 | ++++ (15.01-20.00)
B4 | + (0-5.00)

Same assay, conditions: [Loratadine] = 1 mM; TON = [substrate]*% conversion/[P450]

Molecule | TON
B1 | ‡ (0-1000)
B2 | ‡‡‡ (5001-10000)
B3 | ‡‡‡‡ (10000-50000)
B4 | ‡ (0-1000)

Same assay, conditions: [Loratadine] = 1 mM; fold improvement over parent MCYP-1.2-A07

Molecule | FIOPC (A07)
B2 | * (0.0-3.0)
B3 | * (0.0-3.0)

Same assay, conditions: [Loratadine] = 1 mM; fold improvement over parent MCYP-1.2-A12

Molecule | FIOPC (A12)
B1 | * (0.0-3.0)
B4 | * (0.0-3.0)

Assay: Validation of generalist properties over the four substrates screened
Type: biochemical
Conditions: not given
Method: For the production of lyophilized protein powders, LB agar plates supplemented with chloramphenicol (30 μg/mL) were streaked with E. coli containing a desired B. megaterium P450-BM3 variant in an IPTG-inducible vector. The plates were grown at 37° C. for 16 hrs before single clones were selected to inoculate a 15 mL Falcon™ tube (Fisher) containing TB media (3 mL) supplemented with chloramphenicol (30 μg/mL). The tube was shaken at 200 rpm, 30° C., and 85% humidity for 20-24 h to grow the cultures to saturation. Then, 2.5 mL of the overnight culture was used to inoculate sterile 1 L flasks containing TB medium (250 mL) supplemented with chloramphenicol (30 μg/mL), trace element solution (as described above), and 0.05 g/L ammonium iron (III) citrate. After being shaken at 250 rpm, 30° C., and 85% humidity to an OD600 of 0.8-1.2, P450 expression was induced by addition of IPTG (500 uM) and the heme precursor 5-aminolevulinic acid (5-ALA) to a final concentration of 500 uM. The cultures were grown for additional 20-24 hours and centrifuged in pre-weighed 250 mL centrifuge bottles for 20 minutes at 4000 rpm, 4° C. The supernatants were discarded, and the centrifuge bottles containing cell pellets were weighed. The pellets were resuspended in 50 mM potassium phosphate buffer with 2 mM DTT, pH 8.0 (5 mL of buffer per gram of cell pellet). The cells were lysed using a microfluidizer homogenizer, and the suspensions of cells and lysate were collected in sterile 50 mL centrifuge tubes. The samples were centrifuged for 30 minutes at 10,000 rpm, 4° C. The clarified lysate was collected into a plastic petri plate and frozen at −80° C. prior to lyophilization. The enzyme-containing lysates were lyophilized using standard methods known in the art.
Enzyme stocks (˜12 μM) were prepared by dissolving ˜20 mg of each enzyme in 100 mM potassium phosphate buffer, pH 8.0 (1 mL). The concentration of each enzyme stock solution was determined by the UV-visible absorption spectroscopy (after centrifugation to remove particulates) and diluted to standardize at 12 μM heme protein. Substrate solutions were prepared by dissolving each substrate in DMSO to reach a final concentration of 20 mM or 40 mM. Reaction mix (235 μL) followed by enzyme solution (50 μL) was added to the plates. The substrate stock solution was added to the enzyme solutions (15 μL at the two different concentrations). Each reaction contained 100 mM potassium phosphate, 1.0 mM NADP+, 25 mM glucose, 0.5 mg/mL glucose dehydrogenase, 5% DMSO and substrate at 1 or 2 mM. Loratadine, imatinib, and gefitinib (See, FIG. 1) were selected as substrates in addition to diclofenac to validate improved BM3 variants. The reactions were shaken at 450 rpm at 30° C. over 24 hours. All reactions were diluted with acetonitrile to a final concentration of 0.5 mM substrate. The plates were then centrifuged at 3,000 g for 1 hour at 20° C. The supernatant was diluted 1:1 with acetonitrile, filtered using a 0.4 micron filter, and analyzed by UPLC-MS.
For UPLC-MS analysis, the quenched and filtered reactions were transferred to 96-well HTP plates for analysis by UPLC on a Waters Acquity H-class system equipped with an autosampler. 1 uL of quenched sample was injected onto an Acquity UPLC HSS T3 column, 100 Å, (1.8 um; 2.1×100 mm). […] Column eluent was monitored by PDA (200-600 nm) prior to MS analysis in positive ESI mode (desolvation temperature 350° C., 3.25 kV spray voltage, cone voltage 25V). […]

Molecule | performance (% conversion at 1 mM substrate loading) over the substrates screened, in words
B1 | improved and significant activity for three out of four substrates screened
B2 | moderate activity for all four substrates
B3 | moderate activity for all four substrates
B4 | improved and significant activity for three out of four substrates screened
